Source: US20140135264A1 (CLEVELAND CLINIC FOUNDATION, published 2014)
One block for each molecule: values may come before it.

Columns and labels:
[1] = target: VEGF receptor-2 on mouse lung endothelial cells (mouse) (UniProt P35918); assay: cell-based or functional assay
[2] = target: DiYF β3 integrin (αvβ3 with β3 tyrosines 747 and 759 substituted for phenylalanines), on DiYF mouse lung endothelial cells (mouse) (UniProt P43406); assay: flow cytometry, WOW-1 Fab on DiYF mouse lung EC, 1 mM MnCl2 against unstimulated cells
[3] = target: αvβ3 integrin on human endothelial cells (HUVEC; vasculature of human prostate tissue) (human) (UniProt P06756); assay: flow cytometry, WOW-1 Fab on HUVEC, VEGF-A165 against resting cells
[4] = target: αvβ3 integrin, wild type, on mouse lung endothelial cells (WT EC) (mouse) (UniProt P43406); assay: flow cytometry, WOW-1 Fab on WT mouse lung EC, 1 mM MnCl2 against unstimulated cells
[5] = target: αvβ3 integrin, wild type, on mouse lung endothelial cells (WT EC) (mouse) (UniProt P43406); assay: flow cytometry, WOW-1 Fab on WT mouse lung EC, 20 ng/ml VEGF against unstimulated cells
[6] = target: αvβ3 integrin on human endothelial cells (HUVEC; vasculature of human prostate tissue) (human) (UniProt P06756); assay: immunohistochemistry, WOW-1 staining density, prostate carcinoma against normal prostate tissue
[7] = target: DiYF β3 integrin (αvβ3 with β3 tyrosines 747 and 759 substituted for phenylalanines), on DiYF mouse lung endothelial cells (mouse) (UniProt P43406); assay: flow cytometry, WOW-1 Fab on DiYF mouse lung EC, 20 ng/ml VEGF against unstimulated cells
[8] = target: αvβ3 integrin, wild type, on mouse lung endothelial cells (WT EC) (mouse) (UniProt P43406); assay: flow cytometry, FITC-fibrinogen on WT mouse lung EC, 1 mM MnCl2 against unstimulated cells
[9] = target: αvβ3 integrin, wild type, on mouse lung endothelial cells (WT EC) (mouse) (UniProt P43406); assay: flow cytometry, FITC-fibrinogen on WT mouse lung EC, 20 ng/ml VEGF against unstimulated cells (printed as 'at least')
[10] = target: DiYF β3 integrin (αvβ3 with β3 tyrosines 747 and 759 substituted for phenylalanines), on DiYF mouse lung endothelial cells (mouse) (UniProt P43406); assay: flow cytometry, FITC-fibrinogen on DiYF mouse lung EC, 20 ng/ml VEGF against unstimulated cells
[11] = target: DiYF β3 integrin (αvβ3 with β3 tyrosines 747 and 759 substituted for phenylalanines), on DiYF mouse lung endothelial cells (mouse) (UniProt P43406); assay: flow cytometry, FITC-fibrinogen on DiYF mouse lung EC, 1 mM MnCl2 against unstimulated cells
[12] = target: DiYF β3 integrin (αvβ3 with β3 tyrosines 747 and 759 substituted for phenylalanines), on DiYF mouse lung endothelial cells (mouse) (UniProt P43406); assay: cell-based or functional assay
[13] = target: VEGFR-2 on human endothelial cells (HUVEC; vasculature of human prostate tissue) (human, UniProt P35968 20-1356); assay: cell-based or functional assay
Chain of VEGFR-2 on human endothelial cells (HUVEC; vasculature of human prostate tissue) (P35968 20-1356): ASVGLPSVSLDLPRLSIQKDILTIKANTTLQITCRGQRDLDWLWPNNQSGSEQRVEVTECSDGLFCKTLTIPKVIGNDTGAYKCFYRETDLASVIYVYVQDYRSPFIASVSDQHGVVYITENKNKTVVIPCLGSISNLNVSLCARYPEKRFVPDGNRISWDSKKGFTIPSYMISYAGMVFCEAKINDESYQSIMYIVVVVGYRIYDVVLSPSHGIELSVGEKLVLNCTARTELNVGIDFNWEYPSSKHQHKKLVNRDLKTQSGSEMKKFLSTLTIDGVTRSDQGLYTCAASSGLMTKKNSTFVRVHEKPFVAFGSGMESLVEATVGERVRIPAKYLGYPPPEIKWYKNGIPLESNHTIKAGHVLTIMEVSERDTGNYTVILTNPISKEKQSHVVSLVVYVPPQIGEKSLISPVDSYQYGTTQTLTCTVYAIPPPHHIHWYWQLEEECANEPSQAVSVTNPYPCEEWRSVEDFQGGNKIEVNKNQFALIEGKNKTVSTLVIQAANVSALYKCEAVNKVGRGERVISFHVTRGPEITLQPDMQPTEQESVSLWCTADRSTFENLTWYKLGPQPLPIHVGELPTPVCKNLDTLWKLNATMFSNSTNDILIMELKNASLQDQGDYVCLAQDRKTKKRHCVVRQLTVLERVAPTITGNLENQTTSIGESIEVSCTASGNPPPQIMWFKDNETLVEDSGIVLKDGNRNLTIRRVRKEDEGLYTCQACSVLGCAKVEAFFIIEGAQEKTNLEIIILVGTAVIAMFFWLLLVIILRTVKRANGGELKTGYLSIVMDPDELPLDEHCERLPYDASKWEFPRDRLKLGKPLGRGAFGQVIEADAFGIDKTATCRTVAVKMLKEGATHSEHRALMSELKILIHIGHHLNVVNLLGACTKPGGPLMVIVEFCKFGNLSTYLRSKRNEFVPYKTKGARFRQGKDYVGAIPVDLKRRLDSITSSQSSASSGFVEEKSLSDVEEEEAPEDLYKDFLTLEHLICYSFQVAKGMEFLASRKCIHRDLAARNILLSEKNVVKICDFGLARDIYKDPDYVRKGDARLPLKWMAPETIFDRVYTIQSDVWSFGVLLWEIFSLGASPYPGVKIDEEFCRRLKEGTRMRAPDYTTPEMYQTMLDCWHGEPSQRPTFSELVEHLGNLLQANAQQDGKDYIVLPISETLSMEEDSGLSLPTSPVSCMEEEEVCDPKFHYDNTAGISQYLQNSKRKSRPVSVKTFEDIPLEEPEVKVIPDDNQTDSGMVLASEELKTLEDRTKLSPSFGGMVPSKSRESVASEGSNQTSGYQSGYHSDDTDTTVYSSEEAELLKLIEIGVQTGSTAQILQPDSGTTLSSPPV

Chain of VEGF receptor-2 on mouse lung endothelial cells (mouse) (P35918 20-1345): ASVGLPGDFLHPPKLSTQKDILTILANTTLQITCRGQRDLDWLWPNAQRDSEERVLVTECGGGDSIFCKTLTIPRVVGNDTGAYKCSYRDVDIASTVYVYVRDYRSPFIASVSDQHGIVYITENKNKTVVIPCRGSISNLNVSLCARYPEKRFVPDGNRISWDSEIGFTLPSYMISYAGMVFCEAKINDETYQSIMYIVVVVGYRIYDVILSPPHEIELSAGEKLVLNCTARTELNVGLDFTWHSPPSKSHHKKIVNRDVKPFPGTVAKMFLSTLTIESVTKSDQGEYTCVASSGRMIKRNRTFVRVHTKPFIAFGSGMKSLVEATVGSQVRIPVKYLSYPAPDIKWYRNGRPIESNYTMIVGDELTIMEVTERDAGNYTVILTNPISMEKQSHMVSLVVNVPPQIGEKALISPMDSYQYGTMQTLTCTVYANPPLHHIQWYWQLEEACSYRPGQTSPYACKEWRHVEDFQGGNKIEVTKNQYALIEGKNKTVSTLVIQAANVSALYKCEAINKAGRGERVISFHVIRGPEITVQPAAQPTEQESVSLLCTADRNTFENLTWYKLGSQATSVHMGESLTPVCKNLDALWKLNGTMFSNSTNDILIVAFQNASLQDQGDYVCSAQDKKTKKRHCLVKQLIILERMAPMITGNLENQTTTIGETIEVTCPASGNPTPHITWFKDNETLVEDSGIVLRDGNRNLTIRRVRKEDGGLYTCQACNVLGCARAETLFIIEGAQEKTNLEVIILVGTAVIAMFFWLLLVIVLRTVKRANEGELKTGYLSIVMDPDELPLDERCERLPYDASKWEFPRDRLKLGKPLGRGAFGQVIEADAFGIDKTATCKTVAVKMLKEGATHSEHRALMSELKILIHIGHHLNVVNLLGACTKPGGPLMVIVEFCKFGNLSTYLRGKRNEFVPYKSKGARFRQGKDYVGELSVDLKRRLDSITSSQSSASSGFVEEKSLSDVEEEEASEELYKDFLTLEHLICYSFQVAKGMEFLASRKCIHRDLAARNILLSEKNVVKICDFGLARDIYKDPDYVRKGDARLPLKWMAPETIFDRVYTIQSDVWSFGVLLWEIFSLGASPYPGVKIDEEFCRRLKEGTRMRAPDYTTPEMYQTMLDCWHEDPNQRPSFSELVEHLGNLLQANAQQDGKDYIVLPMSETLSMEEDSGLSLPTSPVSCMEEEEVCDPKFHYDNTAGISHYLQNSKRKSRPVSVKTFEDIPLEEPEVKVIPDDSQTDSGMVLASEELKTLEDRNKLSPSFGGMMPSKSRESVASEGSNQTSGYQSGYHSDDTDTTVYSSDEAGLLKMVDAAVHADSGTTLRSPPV

VEGFR-2 phosphorylation in DiYF EC (immunoprecipitation, anti-phosphotyrosine blot) [1]: 2.5 fold
VEGFR-2 phosphorylation in WT EC (immunoprecipitation, anti-phosphotyrosine blot) [1]: 6 fold
Molecule: VEGF-A165 (ligand)

fold decrease in VEGFR-2 phosphorylation in response to VEGF in HUVEC after β3 siRNA [13]: ~3 fold
B1: αvβ3 integrin on human endothelial cells (HUVEC; vasculature of human prostate tissue) (receptor)
chain 1: FNLDVDSPAEYSGPEGSYFGFAVDFFVPSASSRMFLLVGAPKANTTQPGIVEGGQVLKCDWSSTRRCQPIEFDATGNRDYAKDDPLEFKSHQWFGASVRSKQDKILACAPLYHWRTEMKQEREPVGTCFLQDGTKTVEYAPCRSQDIDADGQGFCQGGFSIDFTKADRVLLGGPGSFYWQGQLISDQVAEIVSKYDPNVYSIKYNNQLATRTAQAIFDDSYLGYSVAVGDFNGDGIDDFVSGVPRAARTLGMVYIYDGKNMSSLYNFTGEQMAAYFGFSVAATDINGDDYADVFIGAPLFMDRGSDGKLQEVGQVSVSLQRASGDFQTTKLNGFEVFARFGSAIAPLGDLDQDGFNDIAIAAPYGGEDKKGIVYIFNGRSTGLNAVPSQILEGQWAARSMPPSFGYSMKGATDIDKNGYPDLIVGAFGVDRAILYRARPVITVNAGLEVYPSILNQDNKTCSLPGTALKVSCFNVRFCLKADGKGVLPRKLNFQVELLLDKLKQKGAIRRALFLYSRSPSHSKNMTISRGGLMQCEELIAYLRDESEFRDKLTPITIFMEYRLDYRTAADTTGLQPILNQFTPANISRQAHILLDCGEDNVCKPKLEVSVDSDQKKIYIGDDNPLTLIVKAQNQGEGAYEAELIVSIPLQADFIGVVRNNEALARLSCAFKTENQTRQVVCDLGNPMKAGTQLLAGLRFSVHQQSEMDTSVKFDLQIQSSNLFDKVSPVVSHKVDLAVLAAVEIRGVSSPDHVFLPIPNWEHKENPETEEDVGPVVQHIYELRNNGPSSFSKAMLHLQWPYKYNNNTLLYILHYDIDGPMNCTSDMEINPLRIKISSLQTTEKNDTVAGQGERDHLITKRDLALSEGDIHTLGCGVAQCLKIVCQVGRLDRGKSAILYVKSLLWTETFMNKENQNHSYSLKSSASFNVIEFPYKNLPIEDITNSTLVTTNVTWGIQPAPMPVPVWVIILAVLAGLLLLAVLVFVMYRMGFFKRVRPPQEEQEREQLQPHENGEGNSET
chain 2: GPNICTTRGVSSCQQCLAVSPMCAWCSDEALPLGSPRCDLKENLLKDNCAPESIEFPVSEARVLEDRPLSDKGSGDSSQVTQVSPQRIALRLRPDDSKNFSIQVRQVEDYPVDIYYLMDLSYSMKDDLWSIQNLGTKLATQMRKLTSNLRIGFGAFVDKPVSPYMYISPPEALENPCYDMKTTCLPMFGYKHVLTLTDQVTRFNEEVKKQSVSRNRDAPEGGFDAIMQATVCDEKIGWRNDASHLLVFTTDAKTHIALDGRLAGIVQPNDGQCHVGSDNHYSASTTMDYPSLGLMTEKLSQKNINLIFAVTENVVNLYQNYSELIPGTTVGVLSMDSSNVLQLIVDAYGKIRSKVELEVRDLPEELSLSFNATCLNNEVIPGLKSCMGLKIGDTVSFSIEAKVRGCPQEKEKSFTIKPVGFKDSLIVQVTFDCDCACQAQAEPNSHRCNNGNGTFECGVCRCGPGWLGSQCECSEEDYRPSQQDECSPREGQPVCSQRGECLCGQCVCHSSDFGKITGKYCECDDFSCVRYKGEMCSGHGQCSCGDCLCDSDWTGYYCNCTTRTDTCMSSNGLLCSGRGKCECGSCVCIQPGSYGDTCEKCPTCPDACTFKKECVECKKFDRGALHDENTCNRYCRDEIESVKELKDTGKDAVNCTYKNEDDCVVRFQYYEDSSGKSILYVVEEPECPKGPDILVVLLSVMGAILLIGLAALLIWKLLITIHDRKEFAKFEEERARAKWDTANNPLYKEATSTFTNITYRGT

The next lines start with the molecule.

Molecule: WOW-1 Fab
fold increase of binding [2]: 14 fold
fold increase of binding [3]: 6 fold
fold increase of binding [4]: 30 fold
fold increase of binding [5]: 9 fold
fold increase of WOW-1 density [6]: 2.7 fold
fold increase of binding [7]: 3.5 fold

Molecule: Fluorescein isothiocyanate (FITC)-labeled fibrinogen (ligand)
fold increase of binding [8]: > 40 fold
fold increase of binding [9]: 6 fold
fold increase of binding [10]: 3 fold
fold increase of binding [11]: 17 fold

Molecule: vitronectin (ligand)
fold decrease in adhesion of DiYF EC to vitronectin-coated wells, against WT EC [12]: 2 fold
fold decrease in spreading of DiYF EC on vitronectin-coated wells, against WT EC [12]: 4 fold
